The values that follow are results of earlier work, collected in patent EP3351262A1, “CURAGLUTIDE FOR IN TREATMENT OF PREDIABETES, DIABETES, OBESITY AND METABOLIC DISEASES ASSOCIATED THERETO” (Istanbul Universitesi Rektorlugu, priority 2016, dated 2018).

For the data set the following is noted: in vivo; cited from earlier work.

On to “GLP-1: glucagon like peptide-1, a neuroendocrine (intestinal) hormone with incretin effect”, for which the half-life in plasma is 12 to 30 min.
